Article PMC7343212, “Lactoferrin-Hexon Interactions Mediate CAR-Independent Adenovirus Infection of Human Respiratory Cells” (Journal of Virology, 2020)
pKd: −log10 of the molar value.

Tests used:
Test in all cases: SPR
[1] = biological target: HAdV-A31 hexon (human adenovirus A31 (strain 1315/63))
[2] = biological target: HAdV-C5 hexon (human adenovirus C5 (strain Ad75)) (UniProt P04133)
[3] = biological target: HAdV-B35 hexon (human adenovirus B35 (strain Holden))

Row | Substance | pKd [1] | pKd [2] | pKd [3] | koff [1] [s⁻¹] | kon [1] [M⁻¹ s⁻¹] | koff [2] [s⁻¹] | kon [2] [M⁻¹ s⁻¹] | koff [3] [s⁻¹] | kon [3] [M⁻¹ s⁻¹]
1 | human lactoferricin 1-49 (hLfcin1-49) (peptide) | 3.73 | 6.14 | 4.66 |  |  |  |  |  | 
2 | human lactoferrin (hLF) (natural protein) | 6.08 | 7.54 | 6.82 | 0.0101 | 12000 | 0.00154 | 53000 | 0.00354 | 25000
